The results in this text go back to publication PMC2362355, “The two phyto-oestrogens genistein and quercetin exert different effects on oestrogen receptor function”.

This series addresses oestrogen receptor (ER), recombinant human (human, UniProt P03372 1-595). In words: EMSA; 10 nM oestradiol; supershifted by anti-ER HC-20; 20 mM HEPES pH 7.9, 60 mM KCl, 5 mM MgCl2, 2 mM DTT, 10% glycerol, 100 ug (unit prefix not given) BSA, 380 fmol ER, 6 ng ERE, 20 ul; 20 C 20 min then 37 C 15 min; 4% native PAGE in 90 mM Tris-borate, 2.5 mM EDTA pH 8.3. Particulars: protein: commercial; label: 32P end label (T4 PNK); (only one strand printed, described as complementary strands, 27 bp). A general note: Mobility shift assays separate free from complexed probe on a gel.

oestrogen receptor (ER), recombinant human, sequence (P03372 whole entry): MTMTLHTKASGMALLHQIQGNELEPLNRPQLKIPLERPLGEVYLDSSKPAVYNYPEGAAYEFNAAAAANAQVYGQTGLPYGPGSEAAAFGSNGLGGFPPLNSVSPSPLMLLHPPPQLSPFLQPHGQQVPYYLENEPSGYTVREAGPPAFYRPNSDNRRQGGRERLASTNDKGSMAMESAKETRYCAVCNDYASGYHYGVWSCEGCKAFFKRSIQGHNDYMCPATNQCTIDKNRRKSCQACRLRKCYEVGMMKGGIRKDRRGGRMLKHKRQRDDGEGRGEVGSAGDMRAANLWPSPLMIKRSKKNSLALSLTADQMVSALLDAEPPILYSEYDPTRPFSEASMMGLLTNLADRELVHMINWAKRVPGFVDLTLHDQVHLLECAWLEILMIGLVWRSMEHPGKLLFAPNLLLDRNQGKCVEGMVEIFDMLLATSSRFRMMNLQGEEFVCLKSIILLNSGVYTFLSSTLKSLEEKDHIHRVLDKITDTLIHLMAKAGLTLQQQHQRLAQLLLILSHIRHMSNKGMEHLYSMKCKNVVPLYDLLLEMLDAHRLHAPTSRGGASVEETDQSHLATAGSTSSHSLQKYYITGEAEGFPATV

B1: consensus ERE 27 bp (dsDNA)
DNA 1: GATCCAGGTCACAGTGACCTGGGCCCG
DNA 2: CGGGCCCAGGTCACTGTGACCTGGATC
With B1, the binding result is “binds”.
